Measurements taken from patent publication US20140302517A1 (SAMSUNG ELECTRONICS, published 2014).
Numbering of substitutions follows the chain as printed.

B1: EW01 (antibody, human IgG1, lambda, V domains shown)
VH: EVQLLESGGGLVQPGGSLRLSCAVSGFTFSDYYMSWVRQAPGKGLEWVSGIYSSSSNIYYADSVKGRFTISRDNSENTLYLQMNSLRAEDTAVYYCAKALGNQENEPTSYSNGMDVWGQGTLVTVSS
VL: QSVLTQPPSASGTPGQRVTISCSGSSSNIGNNSVYWYQQLPGTAPKLLIYSDSQRPSGVPDRFSGSKSGTSASLAISGLRSEDEADYYCGTWDYSLNGYVFGGGTKLTVLG
notes: also called anti-idiotype antibody EW01; EW01 antibody
B2: huAbF46-H4-A1 (IgG2 Fc) (antibody, V domains shown)
VH: EVQLVESGGGLVQPGGSLRLSCAASGFTFTDYYMSWVRQAPGKGLEWLGFIRNKANGYTTEYSASVKGRFTISRDNSKNTLYLQMNSLRAEDTAVYYCARDNWFAYWGQGTLVTVSS
VL: DIQMTQSPSSLSASVGDRVTITCKSSQSLLASGNQNNYLAWYQQKPGKAPKMLIIWASTRVSGVPSRFSGSGSGTDFTLTISSLQPEDFATYYCQQSYSRPYTFGQGTKVEIKR
notes: It was biotinylated in some assays; also called anti-c-Met antibody; biotinylated anti-c-Met antibody
B3: AbF46 (antibody, V domains shown)
VH: EVKLVESGGGLVQPGGSLRLSCATSGFTFTDYYMSWVRQPPGKALEWLGFIRNKANGYTTEYSASVKGRFTISRDNSQSILYLQMDTLRAEDSATYYCARDNWFAYWGQGTLVTVSA
VL: DILMTQSPSSLTVSAGEKVTMSCKSSQSLLASGNQNNYLAWHQQKPGRSPKMLIIWASTRVSGVPDRFIGSGSGTDFTLTINSVQAEDLAVYYCQQSYSAPLTFGAGTKLELK
notes: Mouse monoclonal antibody from a hybridoma; tested as hybridoma culture supernatant in the selection ELISA; also called mouse antibody AbF46; monoclonal antibody of hybridoma KCLRF-BP-00220
B4: EW16 (antibody, human IgG1, lambda, V domains shown)
VH: EVQLLESGGGLVQPGGSLRLSCAASGFTFSDYYMSWVRLAPGKGLEWVSAISHSSGNTYYADSVKGRFTISRDNSKNTLYLQMNSLRAEDTAVYYCAKHLGAQSDEPDSSSNGMDVWGQGTLVTVSS
VL: B1 VL with S23T, S33D, Q54N, V59I, Y94D
B5: EW26 (antibody, human IgG1, lambda, V domains shown)
VH: EVQLLESGGGLVQPGGSLRLSCAASGFTFSNYAMSWVRQAPGKGLEWVSAIYPGGGNTYYADSVKGRFTISRDNSKNTLYLQMNSLRAEDTAVYYCAKSLSTHSVDEPSSDNAMDVWGQGTLVTVSS
VL: B1 VL with S23T, N31S, Y35S, S51D, Q54N, G90A, T91S, G98A
B6: EW28 (antibody, human IgG1, lambda, V domains shown)
VH: EVQLLESGGGLVQTGGSLRLSCAVSGFTFSDYAMSWVRQAPGKGLEWVSAISSGDGNTYYADSVKGRFTISRDNSKNTLYLQMNSLRAEDTAVYYCARYLGTTSDEPASYSNGMDVWGQGTLVTVSS
VL: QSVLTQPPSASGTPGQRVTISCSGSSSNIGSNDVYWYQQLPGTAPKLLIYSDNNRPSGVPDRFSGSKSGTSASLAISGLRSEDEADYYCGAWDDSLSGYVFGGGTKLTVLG
B7: EW37 (antibody, human IgG1, lambda, V domains shown)
VH: EVQLLESGGGLVQPGGSLRLSCAASGFTFSNYSMSWVRQAPGKGLEWVSSISSSGGNTYYADSVKGRFTISRDNSKNTLYLQMNSLRAEDTAVYYCARVHLYFDYWGQGTLVTVSS
VL: B1 VL with N31S, Y35N, Q54H, T91S, Y94D, N97S
B8: HAL 7-2 (antibody, human IgG1, lambda, V domains shown)
VH: QVQLVQSGAEVKKPGSSVKVSCKASGGTFSSYAISWVRQAPGQGLEWMGGIIPIFGTANYAQKFQGRVTITADESTSTAYMELSSLRSEDTAVYYCARDRNSYYEEPMYYFDYWGQGTLVTVSS
VL: QAGLTQPPSVSVSPGQTASITCSGDKLGDRYVFWYQQKPGQAPVLVVHDDSDRPSGIPERFSGSNSGDTATLTISRVEAGDEADYYCQVWDSVNDHPVFGGGTKLTVLG
B9: HAL 7-5 (antibody, human IgG1, lambda, V domains shown)
VH: B8 VH with S16A
VL: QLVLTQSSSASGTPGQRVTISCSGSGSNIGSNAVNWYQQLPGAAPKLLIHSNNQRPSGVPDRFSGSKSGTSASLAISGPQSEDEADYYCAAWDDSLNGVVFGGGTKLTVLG
B10: HAL 7-7 (antibody, human IgG1, lambda, V domains shown)
VH: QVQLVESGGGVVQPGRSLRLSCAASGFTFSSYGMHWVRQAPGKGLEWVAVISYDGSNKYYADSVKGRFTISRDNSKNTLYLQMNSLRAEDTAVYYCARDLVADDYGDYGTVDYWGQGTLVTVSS
VL: QSVLTQPPSVSMAPGQTARITCGGNNIATKGVHWYQQKAGQAPVLVVYDDSGRPSGIPDRFSGSKSGNTATLTISRVEAGDEADYYCQLWDGRSDQVLFGGGTKLTVLG
B11: HAL 7-12 (antibody, human IgG1, lambda, V domains shown)
VH: QLQLQESGGGLVQPGGSLRLSCAASGFTFSSYAMSWVRQAPGKGLEWVSAISGSGGSTYYADSVEGRFTISRDNSKNTLYLQMNSLRAEDTAVYYCAKERLEEPGFFDYWGQGTLVTVSS
VL: QSALTQPASVSGSPGQSITISCTGTSSDVGGYNYVSWYQQHPGKAPKLMIYEVSNRPSGVSNRFSGSKSGNTASLTISGLQAEDEAHYYCSSYTTDNAWVFGGGTQLTVLG
B12: HAL 8-7 (antibody, human IgG1, kappa, V domains shown)
VH: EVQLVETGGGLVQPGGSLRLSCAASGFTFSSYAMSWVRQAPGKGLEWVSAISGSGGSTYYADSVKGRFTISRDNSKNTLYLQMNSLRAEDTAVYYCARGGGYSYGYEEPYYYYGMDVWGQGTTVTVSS
VL: AIQLTQSPLSLSVSAGEKVTMSCKSSQSLLNSGNQKNDLAWYQQKPGQRPKLLIYGASTRESGVPDRFTGSGSGTDFTLTISSVQAEDLAVYYCQNDHSYPLTFGAGTKLEIKR
B13: EW02 (antibody, human IgG1, lambda, V domains shown)
VH: B7 VH with S33A, R87G, R98K, V99Y, L101S, Y102V
VL: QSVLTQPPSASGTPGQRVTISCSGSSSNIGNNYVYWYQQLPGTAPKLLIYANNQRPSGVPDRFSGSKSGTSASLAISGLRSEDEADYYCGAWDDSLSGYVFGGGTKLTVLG
notes: also called EW02 antibody
B14: EW03 (antibody, human IgG1, lambda, V domains shown)
VH: EVQLLESGGGLVQPGGSLRLSCAASGFTFSDYDMSWVRQAPGKGLEWVSLISYGGSNTYYADSVKGRFTISRDNSKNTLYLQMNSLRAEDTAVYYCAKFRSEFNENEPSSYYGMDVWGQGTLVTVSS
VL: B1 VL with S33D, Y35T, Q54N, Y94S, N97S, G98A
B15: EW06 (antibody, human IgG1, lambda, V domains shown)
VH: EVQLLESGGGLVQPGGSLRLSCAASGFTFSGYDMSWVRQAPGKGLEWVSGISHGDGNIYYADSVKGRFTISRDNSKNTLYLQMNSLRAEDTAVYYCAKVGLLFVQEEPSYYNAMDVWGQGTLVTVSS
VL: B1 VL with S23T, N31S, S33N, Y35T, D52N, Q54H, E84G, Y94D
B16: EW09 (antibody, human IgG1, lambda, V domains shown)
VH: B7 VH with N31D, S33D, S53Y, S54G, N57S, T58I, V93M, V99D, H100A, L101A
VL: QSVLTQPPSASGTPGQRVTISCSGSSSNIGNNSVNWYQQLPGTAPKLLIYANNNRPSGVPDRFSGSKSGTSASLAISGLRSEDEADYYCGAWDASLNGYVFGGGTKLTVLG
B17: EW10 (antibody, human IgG1, lambda, V domains shown)
VH: EVQLLESGGGLVQPGGSLRLSCAASGFTFSGYDMSWVRQAPGKGLEWVSGISYNGGSKYYADSVKGRFTISRDNSKNTLYLQMNSLRAEDTAVYYCAKYLLPVLEEPGYSADGMDVWGQGTLVTVSS
VL: B1 VL with S23T, N31S, S33Y, Y35S, Q38R, Q54N, G90A, Y94A, N97S, G98A

Columns and labels:
[1] = molecular target: B2; assay: bridging ELISA: plate coated with anti-c-Met antibody 1 ug/ml; anti-idiotype antibody at 0.01 to 10 (ug/ml per paragraph 258, axis prints no unit); detection with biotinylated anti-c-Met antibody 200 ng/ml and avidin-HRP; absorbance at 450 nm
Procedure: (§1) The antibodies prepared in Example 1 above were produced in 293 F cells (invitrogen), purified and quantified to adjust their concentration, and then used for the following tests. The quantification of the purified antibodies was performed using a Nano-drop machine, and numerals reflecting A280/A260 absorption values were used. The quantification results were confirmed again through SDA-PAGE procedures. […] After blocking, the plates were washed with a PBST (0.05% Tween20 in PBS) and then treated with the anti-idiotype antibodies prepared in example 1 at 10-fold serial dilution concentrations (10 μg/ml, 1 μg/ml, 0.1 μg/ml, and 0.01 μg/ml) starting from 10 μg/ml, respectively to react at a room temperature for one hour. After the reaction was complete, the plates were washed again with a microplate washer (Biotek ELx405, PBST).
(§2) For color development, the plates were treated with TMB (3,3,5,5-tetramethylbenzidine) which is a HRP substrate, and absorption was measured at 450 nm.

[2] = molecular target: T1, c-Met protein (358-MT/CF, RND systems) (UniProt P08581 25-932); assay: ELISA, 'Pre-existing Experiment (0.1% serum)': plate coated with c-Met protein; anti-c-Met antibody titrated 3-fold from 1 ug/ml in monkey serum diluted to 0.1%; Abs450
T1 construct: Bought reagent, known only by its catalogue number; also called antigen c-Met protein
T1 sequence (P08581 25-932 limits assumed): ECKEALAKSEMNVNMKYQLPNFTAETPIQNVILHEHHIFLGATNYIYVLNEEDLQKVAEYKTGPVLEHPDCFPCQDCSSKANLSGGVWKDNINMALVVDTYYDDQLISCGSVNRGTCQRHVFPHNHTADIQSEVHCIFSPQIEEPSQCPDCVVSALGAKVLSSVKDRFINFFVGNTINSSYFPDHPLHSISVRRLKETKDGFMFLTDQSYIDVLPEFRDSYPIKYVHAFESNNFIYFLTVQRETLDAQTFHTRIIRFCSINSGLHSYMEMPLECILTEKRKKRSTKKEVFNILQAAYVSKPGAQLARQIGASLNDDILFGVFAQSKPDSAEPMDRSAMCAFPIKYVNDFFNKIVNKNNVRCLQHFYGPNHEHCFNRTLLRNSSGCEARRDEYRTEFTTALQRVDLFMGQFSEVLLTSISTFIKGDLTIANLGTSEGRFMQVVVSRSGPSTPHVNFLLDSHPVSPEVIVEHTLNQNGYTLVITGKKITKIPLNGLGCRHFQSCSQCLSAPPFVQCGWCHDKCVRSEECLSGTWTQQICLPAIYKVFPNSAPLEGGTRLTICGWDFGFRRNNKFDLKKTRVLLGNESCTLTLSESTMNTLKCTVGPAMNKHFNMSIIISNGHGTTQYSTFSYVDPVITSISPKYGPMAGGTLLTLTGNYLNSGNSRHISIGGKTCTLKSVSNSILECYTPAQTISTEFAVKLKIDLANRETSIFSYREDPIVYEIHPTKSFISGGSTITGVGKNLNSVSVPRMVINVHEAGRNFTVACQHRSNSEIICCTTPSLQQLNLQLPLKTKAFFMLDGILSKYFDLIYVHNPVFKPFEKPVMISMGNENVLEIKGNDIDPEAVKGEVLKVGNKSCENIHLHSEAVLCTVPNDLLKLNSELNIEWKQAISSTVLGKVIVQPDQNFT

[3] = molecular target: B13; assay: sandwich ELISA: capture EW02 0.25 ug/ml; anti-c-Met antibody titrated 3-fold from 1 (ug/ml per paragraph 273, axis prints no unit) in 10% human serum; detector EW01-biotin 0.25 ug/ml, streptavidin-HRP; absorbance at 450 nm
Description: Finally, the plates were washed with a washing solution (PBST (0.05% Tween20 in PBS)) to eliminate unreacted HRP and then, they were subject to color development using a TMB substrate to measure absorption at 450 nm.

[4] = molecular target: B1; assay: sandwich ELISA: plate coated with EW01 0.25 ug/ml; anti-c-Met antibody titrated 3-fold from 1 ug/ml in cynomolgus monkey serum (10% per paragraph 268; the sheet's title prints 0.1% serum); detector biotinylated EW01 0.25 ug/ml, streptavidin-HRP; Abs450
Procedure: After the reaction of the detection antibody was over, the same washing procedures as above were carried out, and a HRP-streptavidin solution (BioLegend) was added thereto to react at a room temperature for one hour. After all the reactions were over, the plates were finally washed and treated with a TMB substrate for color development, and absorption was measured at 450 nm and analyzed.

[5] = molecular target: T2, human c-Met/Fc fusion protein (R&D Systems) (human, UniProt P08581 25-932); assay: ELISA, hybridoma culture on plates coated with human c-Met/Fc fusion protein
T2 construct: Bought; also called human c-Met/Fc protein; not shown: Fc part
T2 sequence (P08581 25-932 limits assumed): as above
Procedure: The antibody that remained unbound was removed by washing.
The hybridoma cell culture obtained in Reference Example 1.1.2 was added in an amount of 50 μL to each well of the plates and incubated for 1 hour. The cells remaining unreacted were washed out with a sufficient amount of Tris-buffered saline and Tween 20 (TBST). Goat anti-mouse IgG-horseradish peroxidase (HRP) was added to the plates and incubated for 1 hour at room temperature. The plates were washed with a sufficient amount of TBST, followed by reacting the peroxidase with a substrate (OPD). Absorbance at 450 nm was measured on an ELISA reader.

[6] = molecular target: B2; assay: bridging ELISA: plate coated with anti-c-Met antibody, anti-idiotype antibody, biotinylated anti-c-Met antibody as detector
Procedure: as §1, §2

[7] = molecular target: B2; assay: SPR (Biacore)

B1: binds [1].

With B2 the “EC50 (read off the curve)” value [2] was about 0.03 µg/mL, the binding result [3] was “binds” and the “EC50 (read off the curve)” value [4] was about 0.02 µg/mL.

B3: binds [5].

B4: binds [6].

B5: binds [6].

B6: binds [6].

B7: binds [6].

B8: binds [6].

B9: binds [6].

B10: binds [6].

B11: binds [6].

B12: binds [6].

For B13, the Kd [7] was 38.4 nM, the koff [7] was 0.0032 s⁻¹ and the kon [7] was 85000 M⁻¹ s⁻¹.

B14: binds [6].

B15: binds [6].

B16: binds [6].

B17: binds [6].
